Laboratory results: US20090188010A1
Values belong to the binder of their own block, whether it stands above or below them.

Legend:
[1] = target: NaPI-insensitive chymotrypsin from H. punctigera (HpCh5), native enzyme from the larval gut (Helicoverpa punctigera); test: cell-based or functional assay
[2] = target: chymotrypsins in unfractionated gut extracts from H. punctigera larvae; test: cell-based or functional assay

Sequence of NaPI-insensitive chymotrypsin from H. punctigera (HpCh5), native enzyme from the larval gut (Helicoverpa punctigera) (chain, as listed by the source limits assumed): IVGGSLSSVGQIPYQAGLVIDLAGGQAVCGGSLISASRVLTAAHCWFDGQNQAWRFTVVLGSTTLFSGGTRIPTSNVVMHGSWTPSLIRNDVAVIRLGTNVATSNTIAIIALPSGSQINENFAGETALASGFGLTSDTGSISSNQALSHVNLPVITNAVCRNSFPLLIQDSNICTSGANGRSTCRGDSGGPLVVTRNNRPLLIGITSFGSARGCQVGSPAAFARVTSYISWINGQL

- inhibition of SA2PFpNA or SA2PLpNA hydrolysis at 300 nM inhibitor [1]: > 75%
- inhibition of SA2PMpNA hydrolysis [1]: 40%
B1: StPotIA, bacterially expressed with N-terminal 6xHis-tag (protein, not shown: small tags and cut ends)
chain: KESESESWCKGKQFWPELIGVPTKLAKEIIEKENPSINDVPIILNGTPVPADFRCNRVRLFDNILGDVVQIPRVA

- inhibition of gut chymotrypsin activity, unfractionated gut extract (FIG. 3) [2]: 70%
B2: recombinant C1 inhibitor with N-terminal hexahistidine tag, expressed in E. coli (protein, not shown: small tags and cut ends)
chain: DRICTNCCAGTKGCKYFSDDGTFVCEGESDPRNPKACTLNCDPRIAYGVCPRSEEKKN

- inhibition of SA2PFpNA or SA2PLpNA hydrolysis at 300 nM inhibitor [1]: > 75%
- inhibition of SA2PMpNA hydrolysis [1]: 40%
B3: StPotIB, bacterially expressed with N-terminal 6xHis-tag (protein, not shown: small tags and cut ends)
chain: KEFECNGKQFWPELIGVPTKLAKEIIEKENSLINNVQILLNGSPVTMDYRCNRVRLFDNILGSVVQIPRVA
